Results published in the RNAGym collection of RNA variant scans (doi:10.1073/pnas.2313332121).

B1: TPR t1 (parent)
chain: GACCAAUCUGCCCUCAGAGCUCGAGAACAUCUUCGGAUGCAGAGGAGGCAGGCUUCGGUGGCGCGAUAGCGCCAACGUCCUCAACCUCCAAUGCAUCCCACCACAUGAUGAUGCCUGAAGAGCCUUGGUUUUUUG

Variants of: B1
Test: polymerase ribozyme fitness, log enrichment relative to wild type (log ratio); higher = more active; in vitro selection for triplet polymerase activity
Outline: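 Each subunit of a heterodimeric triplet polymerase ribozyme was mutagenized into a library by PCR, transcribed, and subjected to one round of in vitro selection, run in triplicate. Libraries were annealed with a biotinylated primer, the partner subunit and triplets, incubated frozen at −7 °C, and extended constructs were gel-excised, captured on streptavidin beads and recovered by RT-PCR. Input and output libraries were sequenced on Illumina, keeping genotypes with ≥10 input reads and ≥1 read per output. Fitness is log base 2 of genotype enrichment divided by wild-type enrichment, from inverse-variance-weighted replicate averages.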

| Variant | polymerase ribozyme fitness (log ratio) |
| --- | --- |
| U54G G57U G120A | 0.132 |
| C56A C82A G128A | -2.53 |
| C56U G63A | -4.43 |
| C56U A91U | -1.19 |
| U55C C62G | -1.97 |
| C56U U78C U81G C94U | -1.62 |
| U54G U116A | -3.36 |
| C56G U116C U130G | -0.701 |
| C56U U81G C82A | -1.57 |
| C56G C62U | 0.102 |
| C56U C72G | -0.66 |
| C56G G107A | -5.95 |
| G58C C98G | -5.66 |
| G58A U59C C70G | -4.95 |
| C56G G63A C101G G122U | -5.14 |
| G58A C72G C82A | -0.468 |
| U54G C88A A105U | -2.56 |
| C56U G128C | -2.63 |
| C56U C97U | -0.00643 |
| C56U U96C | 0.246 |
| C56G C73A G93C | -4.53 |
| G57A G71U C88G | -5.05 |
| G58A G71A U81G U132C | -3.8 |
| U55C A105G C123G | -0.655 |

| Variant | polymerase ribozyme fitness (log ratio) |
| --- | --- |
| G58C G117A | -0.561 |
| C56U G93U U116C | -1.7 |
| C56U G110U | -0.767 |
| G57U U116C | -1.31 |
| G57A C64U U78C U87C C104U G113A | -1.61 |
| C56G U92G U96A G122A | -4.6 |
| C56A G61A G110U | -4.01 |
| G57U C98U G110A U112G | -5.09 |
| U55G G77C A100U G120C U131A | 0.465 |
| C56U A111G | 0.705 |
| G57C U106A U112A | 1.17 |
| U55C G58A | 0.121 |
| C56G U106A | -0.921 |
| G57U G63C A95C U112A G117A | -4.01 |
| U54G C56A U132C | -1.66 |
| U55G C62A A74U C102A | -5.52 |
| C56G C114U | -2.55 |
| G58C U106A | 0.185 |
| G58A G120U | -0.283 |
| U55C G58A U92C | -0.821 |
| C56G C101A | -1.08 |
| G57U G77U G122A | -1.42 |
| C56G G69U C124U | 0.715 |
| C56G U116C | -0.924 |

| Variant | polymerase ribozyme fitness (log ratio) |
| --- | --- |
| G57C G61U U96G | -1.85 |
| C56G G93U | -2.19 |
| C56A G60A U116G G135A | -3.36 |
| C56A C72U | -0.391 |
| G57A C94U | -2.53 |
| C56A C97A | -3.81 |
| C56U U129C | -0.507 |
| C56G A74U C124U | 0.777 |
| C56U C82A G120A G128A | -0.705 |
| C56U G110U A121U | -1.11 |
| C56U C115U U126A | -2.48 |
| G57U A95U A121U C124U | 1.18 |
| U55G G63U A108G | -2.44 |
| G57A G63U G122A | -2.81 |
| G57U G71A C104A U106C U125A U131C | -3.71 |
| U55G C102A G110A U130A | -6.51 |
| G57U A119U G120U | -0.267 |
| G57U A84C C101G G122A | -3.55 |
| C56A C72U C104A | -1.61 |
| C56G G117U | -2.83 |
| U55C C89U C115U | -3.71 |
| C56G C94U | -0.644 |
| U54G C94A C114A | -3.33 |
| C56A C62U C124U | 1.48 |

| Variant | polymerase ribozyme fitness (log ratio) |
| --- | --- |
| C56A G60A | -0.181 |
| G57A C72A C85U C99G U106G | -7.04 |
| G57U U87G G113A C123U | -1.98 |
| C56U G107A | -4.63 |
| C56U G107U | -4.6 |
| U54G G60U C115A | -3.58 |
| G58C C101U G122A | -1.1 |
| G58C U59G A95U G122A | -0.6 |
| C56G U96A C123G U130C | 0.506 |
| U55G G69A U112C G120C | -2.49 |
| U54G U125A U126A | -2 |
| C56A A83C | -0.237 |
| C56A C73U C124A | 1.29 |
| C56U U59G C114G | -1.96 |
| C56G G69C | -4.54 |
| U54G C86U G117U | -2.55 |
| G57A C64G U67G U81A A111U | -6.28 |
| C56U C86G A111U U129G | -5.47 |
| C56U U87A | -0.176 |
| G57C G110A | -1.6 |
| U55A A84C | 0.0901 |
| G58A G60C | -0.284 |
| G58A U81A | -0.982 |
| G57C G120U C124U | 0.197 |

| Variant | polymerase ribozyme fitness (log ratio) |
| --- | --- |
| C56U G69U C79A C101U | -3.71 |
| C56U G63C G110A | -4.56 |
| C56U C82U | -0.0659 |
| C56A C79A A95C C101U U129A | -4.76 |
| C56A A119G | 0.651 |
| G58A G63A C98U U112A | -4.56 |
| C56A U78C | -0.456 |
| C56A U78A | 0.796 |
| G58C G71A C82G C88G | -2.39 |
| C56A G69U A119G | 0.438 |
| G58C G71U A74G C85A A90C | -3.43 |
| C56G A91U A111C | -2.73 |
| G58U A68G | -3.5 |
| C56U G127C | -1.62 |
| C56U G127A | -1.2 |
| G58C U67C A100U G120C | -6.28 |
| U54G G117A | -2 |
| G58U C70G U106C C124U U130A | -2.53 |
| U54G C56G A83C | -2.03 |
| C56A A68G | -2.75 |
| U55G U116G | -2.12 |
| U55A G71A C82A C115A | -0.992 |
| C56A C94U | -0.146 |
| U54G G69U G117U | -3.75 |

| Variant | polymerase ribozyme fitness (log ratio) |
| --- | --- |
| C56G U96G | -1.51 |
| G58C A83C | 0.207 |
| C56G G61C A95G A111U | -6.34 |
| U55G A95U A111C A121U G127C | 0.185 |
| G58C C62A C114A G127A U130G | -6.59 |
| U55A C56G C89U C124A | 0.651 |
| U55A C80A C86G C124G | -4.35 |
| U55G U96A | -1.38 |
| G58A C101G | -1.94 |
| G57A C76A | -0.895 |
| U55C G120U C123G U131A | -0.058 |
| C56G G63A G135C | -2.89 |
| U55C U96A U106A | -0.506 |
| U55C C82A | 0.163 |
| C56A G122A | -0.936 |
| C56G G69C A83C C104U G135A | -4.55 |
| C56A G107C | -5.28 |
| G58A C101U G120U | -0.534 |
| U55A C73A C104A A118G G122U | -1.07 |
| C56G C98A U112A C123A | -4.9 |
| C56G U78A G117A | -2.04 |
| C56G G57C G58A C104A | -3.33 |
| C56A C72U U109G | -5.76 |
| G58C U112C C114U | -1.68 |

| Variant | polymerase ribozyme fitness (log ratio) |
| --- | --- |
| C56U C72U C80U A90C | -2.11 |
| C56G G127A G128A | -3.93 |
| C56U G61U U112C A118C | -4.53 |
| C56A C88U G120U | -0.86 |
| C56G C89A A105G C114U | -5.42 |
| C56A C123U C124U | 1.2 |
| C56U G61U | -2.88 |
| C56U U92G | -2.12 |
| C56U U92A | -2.86 |
| G57C G71U G113C | -3.12 |
| G57U G61C U78G C114U A118U | -5.83 |
| G57C G61U | -0.733 |
| G58C C76G G77U | -0.291 |
| C56G G110U | -1.13 |
| U55A G57A U112G | -0.322 |
| G57U G135U | -0.352 |
| G57C C89G | -0.917 |
| U55A G57C U78C A103G C124A U125A | -4.66 |
| C56U G69U G120U | -1.89 |
| C56U C86G C104U | -0.849 |
| C56A A111U U129C | -4.47 |
| G57A C76A A105C | -4.35 |
| C56G U92C | -1.23 |
